Data on 38 sequences can be found in the supplement of paper PMC7877785.

The nature of this data set: self-splicing fitness, log relative to wild type (ln ratio); higher = more splicing; Tetrahymena group I intron in knt gene, E. coli kanamycin selection, DiMSum; sequences stand for … in CUCUCU…GGAGGGAAAAGUUAUCAGGCAUGCACCUGGUAGCUAGUCUUUAAACCAAUAGAUUGCAUCGGUUUAAAAGGCAAGACCGUCAAAUUGCGGGAAAGGGGUCAACAGCCGUUCAGUACCAAGUCUCAGGGGAAACUUUGAGAUGGCCUUGCAAAGGGUAUGGUAAUAAGCUGACGGACAUGGUCCUAACCACGCAGCCAAGUCCUAAGUCAACAGAUCUUCUGUUGAUAUGGAUGCAGUUCACAGACUAAAUGUCGGUCGGGGAAGAUGUAUUCUUCUCAUAAGAUAUAGUCGGACCUCUCCUUAAUGGGAGCUAGCGGAUGAAGUGAUGCAACACUGGAGCCGCUGGGAACUAAUUUGUAUGCGAAAGUAUAUUGAUUAGUUUUGGAGUACUCGUGGUCG
A digest of the protocol: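 Colonies from six replicate transformations of E. coli BL21(DE3) were pooled and amplicon-sequenced on an Illumina HiSeq 2500. The library placed an intron with all eight P1ex-region nucleotides randomised inside the knt kanamycin-resistance gene on pET-22b(+), and cells grew overnight at 37°C or 30°C on LB agar with or without 25 μg/mL kanamycin (plus 100 μg/mL carbenicillin, 50 μM IPTG, 0.2% rhamnose). Fitness is the DiMSum error-weighted combination of wild-type-normalised replicate fold changes, kanamycin versus none.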

± gives the uncertainty stated by the source.

Consider GACCAGCAAUAUUACGCAUG, for which the “self-splicing fitness (ln)” value is, setting by setting: (30 °C) -1.2 ± 0.073; (37 °C) -1.65 ± 0.09.

For CGGUAGCAAUAUUACGUACA, the “self-splicing fitness (ln)” value (30 °C) is -1.51 ± 0.14 and the “self-splicing fitness (ln)” value (37 °C) is -0.643 ± 0.19.

As to AACGAGCAAUAUUACGAUGU, the “self-splicing fitness (ln)” value is, setting by setting: (30 °C) -2.35 ± 0.2; (37 °C) -1.99 ± 0.17.

Turning to CUCUAGCAAUAUUACGACAG, the “self-splicing fitness (ln)” value was -1.95 ± 0.14 (30 °C) and -0.569 ± 0.13 (37 °C).

In the case of GUCCAGCAAUAUUACGCCGU, the “self-splicing fitness (ln)” value reads like this: (30 °C) -1.29 ± 0.13; (37 °C) -0.122 ± 0.13.

In the case of AACAAGCAAUAUUACGAUGG, the “self-splicing fitness (ln)” value is -3.11 ± 0.094 (30 °C) and -1.72 ± 0.079 (37 °C).

Regarding CACGAGCAAUAUUACGAUCG, the “self-splicing fitness (ln)” value (30 °C) was -1.14 ± 0.077 and the “self-splicing fitness (ln)” value (37 °C) is -0.291 ± 0.083.

Take UAUAAGCAAUAUUACGUCAC: the “self-splicing fitness (ln)” value is, setting by setting: (30 °C) -2.89 ± 0.33; (37 °C) -1.38 ± 0.32.

For CCCAAGCAAUAUUACGGGCU, the “self-splicing fitness (ln)” value reads like this: (30 °C) -3.61 ± 0.18; (37 °C) -2.31 ± 0.17.

Take GUCUAGCAAUAUUACGCCCC: the “self-splicing fitness (ln)” value is 0.281 ± 0.13 (30 °C) and -0.182 ± 0.12 (37 °C).

For UGUUAGCAAUAUUACGGGUU, the “self-splicing fitness (ln)” value (30 °C) was -4.27 ± 0.42 and the “self-splicing fitness (ln)” value (37 °C) is -1.58 ± 0.17.

For ACCGAGCAAUAUUACGGUAU, the “self-splicing fitness (ln)” value was -3.76 ± 0.2 (30 °C) and -1.81 ± 0.14 (37 °C).

Take CACUAGCAAUAUUACGGUAC: the “self-splicing fitness (ln)” value reads like this: (30 °C) -3.09 ± 0.2; (37 °C) -2.87 ± 0.19.

For the sequence AGCUAGCAAUAUUACGACUC, the “self-splicing fitness (ln)” value (30 °C) is -2.01 ± 0.16 and the “self-splicing fitness (ln)” value (37 °C) is -1.24 ± 0.15.

As to CCAUAGCAAUAUUACGGCGG, the “self-splicing fitness (ln)” value was -1.95 ± 0.13 (30 °C) and -1.6 ± 0.18 (37 °C).

For AGGAAGCAAUAUUACGCUUU, the “self-splicing fitness (ln)” value reads like this: (30 °C) -4.15 ± 0.39; (37 °C) -2.32 ± 0.27.

In the case of AACAAGCAAUAUUACGUGAC, the “self-splicing fitness (ln)” value is -2.94 ± 0.095 (30 °C) and -2.34 ± 0.12 (37 °C).

GCUUAGCAAUAUUACGAAGC: the “self-splicing fitness (ln)” value (30 °C) was -4.18 ± 0.31 and the “self-splicing fitness (ln)” value (37 °C) is -4.66 ± 0.36.

GGCCAGCAAUAUUACGGUGU: the “self-splicing fitness (ln)” value is -0.779 ± 0.058 (30 °C) and -0.114 ± 0.07 (37 °C).

Take UAGAAGCAAUAUUACGUCGA: the “self-splicing fitness (ln)” value by setting is: (30 °C) -1.61 ± 0.14; (37 °C) -0.578 ± 0.14.

For GGGUAGCAAUAUUACGCCAC, where the note is “37 °C”, the “self-splicing fitness (ln)” value was -1.72 ± 0.48.

On to GACGAGCAAUAUUACGUUUU, for which the “self-splicing fitness (ln)” value was -4.36 ± 0.28 (30 °C) and -1.61 ± 0.13 (37 °C).

CCGGAGCAAUAUUACGCCGA: where the note is “30 °C”, the “self-splicing fitness (ln)” value was -3.86 ± 0.41.

On to CUGGAGCAAUAUUACGACAU, for which the “self-splicing fitness (ln)” value runs as follows: (30 °C) -2.19 ± 0.019; (37 °C) -1.3 ± 0.036.

On to UUAGAGCAAUAUUACGUUUG, for which the “self-splicing fitness (ln)” value is, setting by setting: (30 °C) -2.04 ± 0.11; (37 °C) -1.05 ± 0.14.

For UUAGAGCAAUAUUACGAAAC, the “self-splicing fitness (ln)” value (30 °C) was -2.21 ± 0.41.

Regarding AGCAAGCAAUAUUACGAUAG, the “self-splicing fitness (ln)” value by setting is: (30 °C) -2.98 ± 0.21; (37 °C) -2.04 ± 0.2.

Consider ACGAAGCAAUAUUACGCGGC, for which the “self-splicing fitness (ln)” value was -2.63 ± 0.35 (30 °C) and -2.22 ± 0.24 (37 °C).

On to UCCAAGCAAUAUUACGUUUG, for which the “self-splicing fitness (ln)” value by setting is: (30 °C) -3.5 ± 0.15; (37 °C) -2.97 ± 0.2.

With UUGAAGCAAUAUUACGCCUG, the “self-splicing fitness (ln)” value (30 °C) worked out at 0.189 ± 0.11 and the “self-splicing fitness (ln)” value (37 °C) is 0.0665 ± 0.12.

As to CUCAAGCAAUAUUACGUAAC, the “self-splicing fitness (ln)” value (30 °C) is -4.43 ± 0.19 and the “self-splicing fitness (ln)” value (37 °C) is -2.08 ± 0.15.

Consider CGCUAGCAAUAUUACGCCUA, for which the “self-splicing fitness (ln)” value (30 °C) was -2.65 ± 0.25 and the “self-splicing fitness (ln)” value (37 °C) was -3.05 ± 0.28.

Consider UUCUAGCAAUAUUACGGUAC, for which the “self-splicing fitness (ln)” value is, setting by setting: (30 °C) -4.34 ± 0.36; (37 °C) -2.76 ± 0.3.

CGGAAGCAAUAUUACGUGGG: the “self-splicing fitness (ln)” value was -3.23 ± 0.13 (30 °C) and -2.85 ± 0.18 (37 °C).

On to GGUCAGCAAUAUUACGGACG, for which the “self-splicing fitness (ln)” value (30 °C) was -0.915 ± 0.11 and the “self-splicing fitness (ln)” value (37 °C) is 0.0247 ± 0.16.

Regarding AGGGAGCAAUAUUACGAGAG, the “self-splicing fitness (ln)” value is -3.23 ± 0.4 (30 °C) and -3.84 ± 0.46 (37 °C).

GAAGAGCAAUAUUACGGAUC: the “self-splicing fitness (ln)” value runs as follows: (30 °C) -1.1 ± 0.071; (37 °C) -1.1 ± 0.09.

Consider UUUAAGCAAUAUUACGUGGC, for which the “self-splicing fitness (ln)” value (30 °C) was -3.77 ± 0.23 and the “self-splicing fitness (ln)” value (37 °C) was -3.57 ± 0.29.
